# Source: US20200123233A1
# Changes are numbered by the printed parent chain.
# B1: LG192A8 (VHH)
# VHH: EVQLVESGGGLVQAGGSLRLSCAASERTVIAYTMGWFRRAPGKERDFVAAMNWNGGNTIYADSAKGRFTISRDNAKNTVYLQMNSLKAEDTAVYYCAARPRFWGSYEYDYWGQGTQVTVSS
# B2: LG192C10 (VHH)
# VHH: EVQLVESGGGLVQAGGSLRLSCAASEGYFRNYMVGWFRQAPGGERMFVAAISDTAYYADSVKGRFTISRDNAKNTVYLPMNSLKPEDTAVYYCAAAPKSWGTWPLVADTRSYHFWGQGTQVTVSS
# B3: 203B12 (VHH)
# VHH: EVQLVESGGGLVQPGGSLRLSCAASGFTFSSYAMGWVRRAPGEGLEWVSSISSGGALPTYADSVKGRFTISRDNVKNTLYLQMNSLKPEDTAVYSCEKYAGSMWTSERDAWGQGTQVTVSS
# B4: LG202C8 (VHH)
# VHH: EVQLVESGGGLVQPGGSLRLSCTGSGFTFSSYWMDWVRQTPGKDLEYVSGISPSGSNTDYADSVKGRFTISRDNAKNTLYLQMNSLKPEDTALYYCRRSLTLTDSPDLRSQGTQVTVSS
# B5: 203H9 (VHH)
# VHH: B4 VHH with S56G, K87Q
# B6: RSVNC41 (VHH)
# VHH: EVQLVESGGGLVQAGGSLSISCAASGGSLSNYVLGWFRQAPGKEREFVAAINWRGDITIGPPNVEGRFTISRDNAKNTGYLQMNSLAPDDTAVYYCGAGTPLNPGAYIYDWSYDYWGRGTQVTVSS
# Key:
# [1] = target: Rabies virus glycoprotein G, Challenge Virus Standard (CVS)-11 strain (Rabies virus, strain CVS-11 (genotype 1 Lyssavirus)) (UniProt O92284); assay: cell-based or functional assay
# [2] = target: Rabies virus glycoprotein G, ERA strain (attenuated vaccine strain, ATCC VR332) (Rabies virus, ERA strain (genotype 1 lyssavirus)) (UniProt P03524); assay: cell-based or functional assay
# [3] = substrate: F protein of hRSV strain Long (human respiratory syncytial virus, strain Long) (UniProt P12568); assay: cell-based or functional assay
# [4] = target: H5 Hemagglutinin (HA, A/Vietnam/1203/2004 (H5N1), Protein Sciences Cat. No. 3006) (influenza A virus A/Vietnam/1203/2004 (H5N1)); assay: SPR (Biacore), H5 coupled on CM5, 1:1 Langmuir model
# [5] = substrate: F protein of RSV A-2 (human respiratory syncytial virus, strain A-2) (UniProt P03420); assay: cell-based or functional assay
# [6] = substrate: F protein of RSV B-1 (human respiratory syncytial virus, strain B-1) (UniProt P13843); assay: cell-based or functional assay
# [7] = substrate: F protein of RSV Long (RSV LONG M-2) (human respiratory syncytial virus, strain Long) (UniProt P12568); assay: cell-based or functional assay
binder,measurement,setting,value
B1,"CVS-11 neutralizing antibody titer (RFFIT), IU/mg",[1],< 0.77 IU/mg
same,"CVS-11 neutralizing antibody titer (RFFIT), IU/ml",[1],< 0.5 IU/ml
same,"CVS-11 neutralizing antibody titer (RFFIT), IU/µM",[1],< 0.02 IU/µM
same,"CVS-11 neutralizing antibody titer (RFFIT), nM IC50",[1],> 4840 nM
same,ERA neutralizing antibody titer (RFFIT): EU/mg,[2],< 0.77 EU/mg
same,ERA neutralizing antibody titer (RFFIT): EU/ml,[2],< 0.5 EU/ml
same,ERA neutralizing antibody titer (RFFIT): EU/µM,[2],< 0.02 EU/µM
same,ERA neutralizing antibody titer (RFFIT): nM IC50,[2],> 4840 nM
same,"hRSV micro neutralization, strain Long on Hep2 cells",[3],> 3 µM
B2,"hRSV micro neutralization, strain Long on Hep2 cells",[3],> 3 µM
B3,Kd,[4],30 nM
B4,Kd,[4],10 nM
B5,Kd,[4],15.5 nM
B6,"RSV neutralization IC50 (nM) (n = 2), A-2",[5],26 nM
same,"RSV neutralization IC50 (nM) (n = 2), B1",[6],4000 nM
same,"RSV neutralization IC50 (nM) (n = 2), Long",[7],58 nM
